Data: patent US7749976
Marks after values point to notes of the source that are not given here.

B1: VHR (protein)
chain: MSGSFELSVQDLNDLLSDGSGCYSLPSQPCNEVTPRIYVGNASVAQDIPKLQKLGITHVLNAAEGRSFMHVNTNANFYKDSGITYLGIKANDTQEFNLSAYFERAADFIDQALAQKNGRVLVHCREGYSRSPTLVIAYLMMRQKMDVKSALSIVRQNREIGPNDGFLAQLCQLNDRLAKEGKLKP
B2: GST-PLIP (recombinant murine PLIP fusion protein with N-terminal GST and 6-His tags) (protein)
chain: MAASAWLEAGLARVLFYPTLLYTVFRGRVRGPAHRDWYHRIDHTVLLGALPLKNMTRRLVLDENVRGVITMNEEYETRFLCNTSKEWKKAGVEQLRLSTVDMTGVPTLANLHKGVQFALKYQALGQCVYVHCKAGRSRSATMVAAYLIQVHNWSPEEAIEAIAKIRSHISIRPSQLEVLKEFHKEITARAAKN
B3: TC-PTP (protein)
chain: MPTTIEREFEELDTQRRWQPLYLEIRNESHDYPHRVAKFPENRNRNRYRDVSPYDHSRVKLQNAENDYINASLVDIEEAQRSYILTQGPLPNTCCHFWLMVWQQKTKAVVMLNRIVEKESVKCAQYWPTDDQEMLFKETGFSVKLLSEDVKSYYTVHLLQLENINSGETRTISHFHYTTWPDFGVPESPASFLNFLFKVRESGSLNPDHGPAVIHCSAGIGRSGTFSLVDTCLVLMEKGDDINIKQVLLNMRKYRMGLIQTPDQLRFSYMAIIEGAKCIKGDSSIQKRWKELSKEDLSPAFDHSPNKIMTEKYN

Target: Casein Ser(P)

| Protein | Phosphatase activity (mole of phosphate released/min/mol of enzyme) | Phosphatase activity (mole of phosphate released/min/mol of enzyme) (mol/(min mol)) |
| --- | --- | --- |
| B1 | ~0.0^b | 1.8 |
| B2 | ~0.0^b | 0.2 |
| B3 | ~0.0^b | 1440 |

Target: MyBP Ser(P)/Tyr(P)
Sequence (P02686 whole entry): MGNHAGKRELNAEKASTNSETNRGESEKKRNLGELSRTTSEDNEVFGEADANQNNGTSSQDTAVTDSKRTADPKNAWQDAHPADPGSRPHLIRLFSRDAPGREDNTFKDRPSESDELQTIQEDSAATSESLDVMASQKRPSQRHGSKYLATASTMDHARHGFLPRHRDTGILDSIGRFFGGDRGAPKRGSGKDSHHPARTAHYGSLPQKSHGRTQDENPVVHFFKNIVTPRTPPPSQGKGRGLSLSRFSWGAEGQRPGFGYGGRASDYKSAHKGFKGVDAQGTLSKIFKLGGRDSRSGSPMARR

| Protein | Phosphatase activity (mole of phosphate released/min/mol of enzyme) |
| --- | --- |
| B1 | ~0.0^b |
| B2 | ~0.0^b |
| B3 | ~0.0^b |

Target: MyBP Tyr(P)
Sequence (P02686 whole entry): as above

| Protein | Phosphatase activity (mole of phosphate released/min/mol of enzyme) (mol/(min mol)) |
| --- | --- |
| B1 | 0.5 |
| B2 | 0.1 |
| B3 | 195 |
